In publication PMC11134719 one finds decrease of the ACE2 surface protein level (Western blot of the cell surface fraction), 0.5 µg/mL S protein for 48 h, TLR4 surface protein level by Western blot, fold over nontreated endothelial cells, 0.5 µg/mL S protein for 48 h and TLR4 surface protein level by immunostaining, fold over nontreated endothelial cells, 0.5 µg/mL S protein for 48 h data, which are given here for 1 substance.

Test [1] deals with angiotensin-converting enzyme 2 (ACE2) (human (endogenous in HUVECs and HMEC-1)) (UniProt Q9BYF1).
Test [2] deals with Toll-like receptor 4 (TLR4) (human (endogenous in HUVECs and HMEC-1)) (UniProt O00206).
UniProt O00206, sequence (O00206 24-839): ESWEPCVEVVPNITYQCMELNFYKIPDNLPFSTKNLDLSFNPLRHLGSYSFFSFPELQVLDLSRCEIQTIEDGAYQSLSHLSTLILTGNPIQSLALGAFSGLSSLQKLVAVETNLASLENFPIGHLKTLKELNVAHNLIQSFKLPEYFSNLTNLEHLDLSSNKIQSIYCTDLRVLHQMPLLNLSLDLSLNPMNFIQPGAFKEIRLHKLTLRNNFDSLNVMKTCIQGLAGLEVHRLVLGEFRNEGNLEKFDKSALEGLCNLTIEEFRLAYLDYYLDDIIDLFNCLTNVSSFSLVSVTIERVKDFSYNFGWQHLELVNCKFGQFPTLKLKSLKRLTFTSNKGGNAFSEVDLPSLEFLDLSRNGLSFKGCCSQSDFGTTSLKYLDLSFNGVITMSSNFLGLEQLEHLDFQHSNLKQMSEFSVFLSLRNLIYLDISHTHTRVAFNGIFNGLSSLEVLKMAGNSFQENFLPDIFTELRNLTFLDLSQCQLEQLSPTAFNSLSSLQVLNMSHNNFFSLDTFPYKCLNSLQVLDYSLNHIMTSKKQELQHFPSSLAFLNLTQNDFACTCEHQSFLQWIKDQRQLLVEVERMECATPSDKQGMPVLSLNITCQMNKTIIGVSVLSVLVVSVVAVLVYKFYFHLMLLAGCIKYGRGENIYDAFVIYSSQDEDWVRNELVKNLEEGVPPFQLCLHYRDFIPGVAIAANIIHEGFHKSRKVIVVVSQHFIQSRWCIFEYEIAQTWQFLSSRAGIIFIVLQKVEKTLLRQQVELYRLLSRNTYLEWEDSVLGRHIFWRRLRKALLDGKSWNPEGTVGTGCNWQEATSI

UniProt Q9BYF1, sequence (Q9BYF1 18-805): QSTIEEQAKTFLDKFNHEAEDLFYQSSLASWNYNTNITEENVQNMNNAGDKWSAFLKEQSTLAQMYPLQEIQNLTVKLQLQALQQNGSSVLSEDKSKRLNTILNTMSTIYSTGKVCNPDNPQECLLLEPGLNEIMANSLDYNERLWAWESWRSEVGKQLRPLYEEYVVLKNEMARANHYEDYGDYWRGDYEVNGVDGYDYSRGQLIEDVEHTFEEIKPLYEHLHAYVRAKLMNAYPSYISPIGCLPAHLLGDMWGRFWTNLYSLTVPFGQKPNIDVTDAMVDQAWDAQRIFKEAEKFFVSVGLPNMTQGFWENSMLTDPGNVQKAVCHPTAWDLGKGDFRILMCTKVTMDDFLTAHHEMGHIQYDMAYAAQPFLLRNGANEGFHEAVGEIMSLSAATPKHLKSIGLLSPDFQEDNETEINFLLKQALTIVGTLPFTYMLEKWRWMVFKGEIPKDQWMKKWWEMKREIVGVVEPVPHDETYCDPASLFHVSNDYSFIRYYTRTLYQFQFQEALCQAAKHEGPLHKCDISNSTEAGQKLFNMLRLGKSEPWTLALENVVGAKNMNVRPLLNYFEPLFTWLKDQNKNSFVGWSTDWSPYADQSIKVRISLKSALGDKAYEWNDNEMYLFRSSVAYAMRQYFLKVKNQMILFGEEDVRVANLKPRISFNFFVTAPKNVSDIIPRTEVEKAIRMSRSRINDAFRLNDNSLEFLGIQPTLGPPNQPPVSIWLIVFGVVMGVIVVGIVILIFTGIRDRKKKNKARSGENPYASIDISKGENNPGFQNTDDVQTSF

The substance “2019-nCoV S1 Protein (SARS-CoV-2 Spike protein) (domain or fragment)” registered a decrease of the ACE2 surface protein level (Western blot of the cell surface fraction), 0.5 µg/mL S protein for 48 h in test [1] of 60%. In test [2], the TLR4 surface protein level by Western blot, fold over nontreated endothelial cells, 0.5 µg/mL S protein for 48 h stood at 1.7 fold and the TLR4 surface protein level by immunostaining, fold over nontreated endothelial cells, 0.5 µg/mL S protein for 48 h is 1.4 fold.
